Data published in paper PMC4102244, “Molecular mechanism for Rabex-5 GEF activation by Rabaptin-5” (eLife, 2014).
Values belong to the molecule of their own block, whether it stands above or below them.

Columns and labels:
[1] = biological target: Rab5-Rabex-5-Rabaptin-5C21 (R3) complex (human) (UniProt P20339); assay: SAXS; purified R2, R2Δ, R3 and R3Δ complexes at 5 mg/ml in 20 mM Tris–HCl (pH 8.0), 150 mM NaCl, 293 K
[2] = biological target: Rabex-5-Rabaptin-5C21 (R2) complex (human) (UniProt Q15276); assay: as above
[3] = biological target: the molecule itself; assay: crystal structure; Rabex-5Δ-Rabaptin-5C21_(2) (R2Δ) complex, 3.10 Å; hanging drop, 16°C, 2.0 M NaH2PO4/K2HPO4 (pH 7.0), 0.05% n-octyl-β-D-galactopyranoside

stoichiometry N [1]: 2
Molecule: Rab5-Rabex-5-Rabaptin-5C21 (R3) complex (from UniProt P20339 15-184; Q15276 552-642)

stoichiometry N [2]: 2
Molecule: Rabex-5-Rabaptin-5C21 (R2) complex (from UniProt Q15276 552-642)

B1: Rabaptin-5 C2-1 domain (residues 552–642) (domain or fragment, human, UniProt Q15276 552-642, looked up)
chain: ETRDQVKKLQLMLRQANDQLEKTMKDKQELEDFIKQSSEDSSHQISALVLRAQASEILLEELQQGLSQAKRDVQEQMAVLMQSREQVSEEL
notes: Rabaptin-5, human, C2-1 domain, residues 552-642; In pET-Duet1 a tag is stated only for the Rabex-5 partner; also called Rabaptin-5C21_(2)
binding result [3]: binds
